# Residue numbers refer to the chain shown, from its start. Where no end group is shown, it is not given here.
# T1: GLP-1 receptor (rat, UniProt P32301)
# T1 chain: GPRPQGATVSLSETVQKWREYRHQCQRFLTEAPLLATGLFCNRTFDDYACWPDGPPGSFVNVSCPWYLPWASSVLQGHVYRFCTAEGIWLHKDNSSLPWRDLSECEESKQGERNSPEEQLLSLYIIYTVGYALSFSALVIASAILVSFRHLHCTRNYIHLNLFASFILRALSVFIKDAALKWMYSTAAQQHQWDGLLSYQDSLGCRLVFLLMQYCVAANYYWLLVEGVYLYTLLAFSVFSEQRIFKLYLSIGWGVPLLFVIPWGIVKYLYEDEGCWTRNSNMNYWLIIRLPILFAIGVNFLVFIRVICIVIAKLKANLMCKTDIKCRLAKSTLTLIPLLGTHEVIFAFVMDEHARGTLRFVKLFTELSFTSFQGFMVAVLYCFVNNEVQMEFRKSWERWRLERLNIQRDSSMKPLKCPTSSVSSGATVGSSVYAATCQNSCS
# T2: Glucagon receptor (rat), P30082
# T2 chain: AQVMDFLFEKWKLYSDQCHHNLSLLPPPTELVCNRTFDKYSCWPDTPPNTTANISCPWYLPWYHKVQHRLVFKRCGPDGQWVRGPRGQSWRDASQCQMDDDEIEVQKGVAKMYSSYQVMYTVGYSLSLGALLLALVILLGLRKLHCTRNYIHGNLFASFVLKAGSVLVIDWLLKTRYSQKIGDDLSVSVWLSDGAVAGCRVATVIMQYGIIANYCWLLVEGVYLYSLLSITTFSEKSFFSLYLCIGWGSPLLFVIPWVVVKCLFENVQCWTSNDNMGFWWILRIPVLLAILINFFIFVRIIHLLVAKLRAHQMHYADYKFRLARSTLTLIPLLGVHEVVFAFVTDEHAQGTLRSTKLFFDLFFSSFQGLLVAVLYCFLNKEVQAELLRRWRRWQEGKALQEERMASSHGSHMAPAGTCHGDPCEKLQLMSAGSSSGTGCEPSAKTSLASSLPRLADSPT
# T3: GLP-1 receptor (rat), P32301
# T3 chain: T1 chain
# T4: Glucagon receptor (rat, UniProt P30082)
# T4 chain: T2 chain
# B1: G2185 (peptide)
# chain: HSQGTFTSDYARYLDARRAREFIKWLVRGRC(PEG 22 kD)
# B2: G4185 (peptide)
# chain: HSQGTFTSDYARYLDARRAREFIKWLVRGRC(PEG 43 kD)
# B3: G1 (peptide)
# chain: HSQGTFTSDYSKYLDSRRAQDFVQWLVKGR
# B4: G182 (peptide)
# chain: HSQGTFTSDYARYLDARRAREFIKWLVRGRGK
# B5: G85 (peptide)
# chain: B4 chain with K24A
# B6: G87 (peptide)
# chain: HSQGTFTSDYAKYLDARRAKEFIAWLVKGR
# B7: G5 (peptide)
# chain: HSQGTFTSDYSKYLEGQAAKEFIAWLVKGR
# B8: G57 (peptide)
# chain: B6 chain with R17A
# B9: G90 (peptide)
# chain: HSQGTFTSDYARYLDARRAREFIKWLVRGRG
# B10: G185 (peptide)
# chain: B9 chain with G31C
# B11: G83 (peptide)
# chain: B9 chain
# B12: G183 (peptide)
# chain: B9 chain with R20K
# B13: G55 (peptide)
# chain: B6 chain with K12R
# B14: G27 (peptide)
# chain: B6 chain
# B15: G59 (peptide)
# chain: HSQGTFTSDYARYLDAKKAKEFIAWLVKGRG
# B16: G61 (peptide)
# chain: B15 chain with K17A
# B17: G71 (peptide)
# chain: HSQGTFTSDYAKYLDARRACEFIAWLVKGRG
# B18: G60 (peptide)
# chain: B15 chain with R12K, K17A
# B19: G75 (peptide)
# chain: B17 chain with C20K, G29C
# B20: G58 (peptide)
# chain: B15 chain with R12K
# B21: G76 (peptide)
# chain: B17 chain with C20K, R30C
# B22: G84 (peptide)
# chain: B17 chain with K12R, C20R
# B23: G77 (peptide)
# chain: B17 chain with C20K, G31C
# B24: G88 (peptide)
# chain: B17 chain with C20K, G31K
# B25: G74 (peptide)
# chain: B17 chain with C20K, K28C
# B26: G51 (peptide)
# chain: B17 chain with C20K
# B27: G82 (peptide)
# chain: B9 chain with R20K, K24A
# B28: G56 (peptide)
# chain: B6 chain with K12A
# B29: G277 (peptide)
# chain: HSQGTFTSDYAKYLDARRAKEFIAWLVKGRC(PEG 22 kD)
# Target: T1, GLP-1 receptor
# Assay: competition
# Details: not given
row,IC50 [nM],Binder
1,56.1,B1
2,248,B2

# Target: T2, Glucagon receptor (rat), P30082
# Assay: competition
# Details: modification not given
row,IC50 [nM],Binder
1,6.6,B3
2,220,B4
3,16.1,B5
4,620,B6
5,243,B7
6,178,B8
7,726,B9
8,48,B10
9,28.6,B11
10,663,B12
11,139,B13
12,69.3,B14
13,97.5,B15
14,232,B16
15,25.6,B17
16,682,B18
17,54,B19
18,164,B20
19,59.1,B21
20,11.7,B22
21,61.1,B23
22,350,B24
23,21.7,B25
24,154,B26
25,33.6,B27
26,125,B28

# Target: T3, GLP-1 receptor (rat), P32301
# Assay: competition
# Details: modification not given
row,IC50 [nM],Binder
1,6,B3
2,12.6,B4
3,1.5,B5
4,98.6,B6
5,0.5,B7
6,14.7,B8
7,25.4,B9
8,4.5,B10
9,3.2,B11
10,159,B12
11,9.8,B13
12,2.2,B14
13,2.1,B15
14,10.6,B16
15,5.8,B17
16,13.8,B18
17,7.7,B19
18,6.9,B20
19,10.2,B21
20,1.4,B22
21,8.9,B23
22,109,B24
23,4.4,B25
24,8.2,B26
25,8.1,B27
26,6.6,B28

# Target: T4, Glucagon receptor
# Assay: competition
# Details: not given
row,IC50 [nM],Binder
1,347,B1
2,547,B2
3,65.5,B29

# — patent publication US7399745 (dated 2008)
